From US5854025
One block for each substance: values may come before it.

Experiments:
[1] = target: type 2 IGF receptor on H35 (rat hepatoma) cells (rat); experiment: displacement of 125I-IGF-II from H35 cells (type 2 IGF receptor)
[2] = target: insulin receptor on H35 cells (rat) (UniProt P15127); experiment: displacement of 125I-insulin from H35 cells (insulin receptor)
[3] = target: type 2 IGF receptor on H35 (rat hepatoma) cells (rat); experiment: displacement of 125I-IGF-II from H35 cells (type 2 IGF receptor); secreted preparation
[4] = target: type 2 IGF receptor on H35 (rat hepatoma) cells (rat); experiment: displacement of 125I-IGF-II from H35 cells (type 2 IGF receptor); refolded preparation

Chain of IGF-II (Q^37 Q^38) (ligand) (chain): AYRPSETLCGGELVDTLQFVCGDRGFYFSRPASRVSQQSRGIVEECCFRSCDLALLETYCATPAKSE
Chain of recombinant IGF-II from a commercial supplier (Bachem), reference standard (ligand) (chain): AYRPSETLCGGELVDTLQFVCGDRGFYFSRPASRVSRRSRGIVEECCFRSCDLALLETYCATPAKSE

IC50 [1]: 0.03 µg/mL
Substance: wild-type IGF-II, refolded material (made by the HRP fusion route, pSD28, cyanogen bromide cleavage and refolding) (ligand)

IC50 [2]: 0.0048 µg/mL
Substance: insulin (ligand)

IC50 [1]: 0.018 µg/mL
Substance: recombinant IGF-II from a commercial supplier (Bachem), reference standard (ligand)

IC50 [3]: 0.03 µg/mL | IC50 [4]: 0.06 µg/mL
Substance: IGF-II (Q^37 Q^38) (ligand)
